The values below come from patent US5500344A, “Serine protease and uses thereof” (The United States of America as represented by the …, priority 1992, dated 1996).

A short description of data set [1]: Met-ase activity of fractions on purification from RNK granules. Type of data set: biochemical, rat. The protocol:
The protease of the present invention is purified to homogeneity sufficient to be sequenced and is at least about 90% pure. At this purity level, the protease has a Met-ase activity of about 156 nM/sec/μg without the intentional addition of other substances such as other proteins or carriers. The assay for measuring this activity was performed as described in the Experimental Details section. The specific activity, however, depends on the degeneracy and folding of the protease and may be as low as about 100 nM/sec/μg to as high as about 200 nM/sec/μg.
Assay of Proteases. Thiobenzylester substrates were used to measure protease activities. For monitoring enzyme activities from granules and column fractions, assays were performed at room temperature using 0.5 mM 5,5'-dithiobis-(2-nitrobenzoic acid) (DTNB) (Sigma) to detect the HSBzl leaving group (e410 =13600M-^-1 cm^-1).
BLT-esterase activity was estimated using a microtiter assay (Green, G. D. J., and Shaw, E. Anal. Biochem. 93:223-226 (1979)). Briefly, 50 μl of sample was added to 100 μl of 1 mM DTNB, made up in 10 mM Hepes, 1 mM CaCl2, 1 mM MgCl2, pH7.2. The reaction was initiated by the addition of 50 μl of BLT (Sigma) to give a final concentration of 500 μM. For Metase determinations, 50 μl of dilutions of the sample in 0.1M Hepes, 0.05M CaCl2, pH7.5 were added to 100 μl of 1 mM DTNB and the reaction was initiated by the addition of 50 μl of Boc-Ala-Ala-Met-S Benzyl (Bzl) to give a final concentration of 150 μM. The duration of the assay depended on color development, the rate of which was measured (0.D410) on a Dynatech MR 5000 microplate reader. Controls of sample and DTNB alone or DTNB and substrate alone were run. For more sensitive comparisons of enzymatic activities, peptide thiobenzyl ester substrates were used to measure protease activities. The chymase substrate Suc-Phe-Leu-Phe-SBzl was purchased from BACHEM Bioscience Inc., Philadelphia, Pa. Z-Arg-SBzl (the tryptase substrate, Kam, C-M., et al. J. Biol. Chem. 262:3444-3451 (1987)); Boc-Ala-Ala-AA-SBzl (AA=Asp, Met, Leu, Nle, or Ser) and Suc-Ala-Ala-Met-SBzl (Odake, S., et al. Biochemistry 30:2217-2227 (1991); Harper, J. W., et al. Biochemistry 23:2995-3002 (1984)) were synthesized previously. Boc-Ala-Ala-Asp-SBzl is the substrate for Asp-ase and peptide thiobenzyl esters containing Met, Leu or Nle are substrates for Met-ase SP. Assays were performed at room temperature in 0.1M, Hepes buffer, pH7.5, containing 0.01M CaCl2 and 8% Me2 SO using 0.34 mM 4,4'-dithiodipyridine (Aldrithiol-4, Aldrich Chemical Co., Milwaukee, Wis.) to detect HSBzl leaving group that reacts with 4,4'-dithiodipyridine to release thiopyridone (ε324=19800M^-1 cm^-1, Grasetti, D. R. and Murray, J. F. Arch. Biochem. Biophys. 119:41-49 (1967)). The initial rates were measured at 324 nm using a Beckman 35 spectrophotometer when 10-25 μl of an enzyme stock solution was added to a cuvette containing 2.0 ml of buffer, 150 μl of 4,4'-dithiodipyridine and 25 μl of substrate. The same volume of substrate and 4,4'-dithiodipyridine were added to the reference cell in order to compensate for the background hydrolysis rate of the substrates. Initial rates were measured in duplicate for each substrate concentration and were averaged in each case. Substrate concentrations were 100-133 μM.

The target of a further data set is T1, Boc-Ala-Ala-Ser-SBzl.
T1 sequence (peptide, N-terminal Boc; C-terminal thiobenzyl ester (SBzl)): AAS

The target of another data set is T2, Suc-Phe-Leu-Phe-SBzl.
T2 sequence (peptide, N-terminal Suc; C-terminal thiobenzyl ester (SBzl)): FLF

The target in a further data set is T3, Boc-Ala-Ala-Leu-SBzl.
T3 sequence (peptide, N-terminal Boc; C-terminal thiobenzyl ester (SBzl)): AAL

The next data set has as its target T4, Boc-Ala-Ala-Asp-SBzl.
T4 sequence (peptide, N-terminal Boc; C-terminal thiobenzyl ester (SBzl)): AAD

In the next data set the target is T5, Boc-Ala-Ala-Met-SBzl.
T5 sequence (peptide, N-terminal Boc; C-terminal thiobenzyl ester (SBzl)): AAM

The target of the next data set is T6, Suc-Ala-Ala-Met-SBzl.
T6 sequence (peptide, N-terminal Suc; C-terminal thiobenzyl ester (SBzl)): AAM

B1: RNK-Met-1 (enzyme)
chain: IIGGREAVPHSRPYMVSLQNTKSHMCGGVLVHQKWVLTAAHCLSEPLQQLKLVFGLHSLHDPQDPGLTFYIKQAIKHPGYNLKYENDLALLKLDGRVKPSKNVKPLALPRKPRDKPAEGSRCSTAGWGITHQRGQLAKSLQELDLRLLDTRMCNNSRFWNGVLTDSMLCLKAGAKGQAPCKGDSGGPLVCGKGKVDGILSFSSKNCTDIFKPTVATAVAPYSSWIRKVIGRWSPQPLT
Consider B1, for which the “Increase in the specific activity on purification to homogeneity from the granule extract” value in data set [1] was determined as 29 fold. The same molecule returned a Rate in data set [1] (Met-ase rate, protein in assay 10, 3.4, 1.3, 0.1 μg by fraction) of 17 nM/s. In data set [1] (Met-ase, purification step), the “Specific Activity” value is reported as 156.0 nM/sec/μg protein. Also, the Met-ase activity result in data set [1] (protease at least about 90% pure, no added proteins or carriers) was “about 156 nM/sec/μg”. Besides, the Total in data set [1] (total Met-ase activity of the fraction) is recorded as 2,807 nM/sec. In addition, the Initial Rates was 3.9 nM/s with Boc-Ala-Ala-Nle-SBzl; 0 nM/s with Boc-Ala-Ala-Ser-SBzl; 0 nM/s in the data set with Suc-Phe-Leu-Phe-SBzl; 2.9 nM/s in the data set with Boc-Ala-Ala-Leu-SBzl; 0 nM/s with Boc-Ala-Ala-Asp-SBzl; 4.2 nM/s with Boc-Ala-Ala-Met-SBzl. In the data set with Suc-Ala-Ala-Met-SBzl, the Initial Rates was 10.1 nM/s.
